In patent US20230416361A1 (MIROBIO, published 2023):

B1: hu2131_v20_D56S hIgG1k P238D (antibody)
heavy: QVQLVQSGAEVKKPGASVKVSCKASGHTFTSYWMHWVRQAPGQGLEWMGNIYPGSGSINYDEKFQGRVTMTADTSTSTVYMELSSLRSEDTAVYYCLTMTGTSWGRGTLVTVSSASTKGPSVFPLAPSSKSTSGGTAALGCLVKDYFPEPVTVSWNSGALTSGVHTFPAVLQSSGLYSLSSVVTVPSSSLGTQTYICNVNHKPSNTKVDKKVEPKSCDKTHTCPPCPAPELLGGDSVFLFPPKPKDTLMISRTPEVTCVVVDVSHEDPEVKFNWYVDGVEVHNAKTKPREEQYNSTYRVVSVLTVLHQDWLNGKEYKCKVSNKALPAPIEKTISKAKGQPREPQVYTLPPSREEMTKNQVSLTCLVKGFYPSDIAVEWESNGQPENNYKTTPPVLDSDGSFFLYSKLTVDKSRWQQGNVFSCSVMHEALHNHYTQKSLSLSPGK
light: DIQMTQSPSSLSVSVGDRVTITCQASQGTPINLHWFQQKPGKAPKLLISGASNLESGVPSRFSGSGSGTEFTFTISSLQPEDAATYYCLQFTYIPWTFGQGTKLEIKRTVAAPSVFIFPPSDEQLKSGTASVVCLLNNFYPREAKVQWKVDNALQSGNSQESVTEQDSKDSTYSLSSTLTLSKADYEKHKVYACEVTHQGLSSPVTKSFNRGEC
notes: also called VH4/VL5-D56S
B2: hu2131_Q1E_M99G hIgG1k P238D (antibody, V domains shown)
VH: EVQLVQSGAEVKKPGASVKVSCKASGHTFTSYWMHWVRQAPGQGLEWMGNIYPGSGSINYDEKFQGRVTMTADTSTSTVYMELSSLRSEDTAVYYCLTGTGTSWGRGTLVTVSS
VL: DIQMTQSPSSLSVSVGDRVTITCQASQGTPINLHWFQQKPGKAPKLLISGASNLESGVPSRFSGSGSGTEFTFTISSLQPEDAATYYCLQFTYIPWTFGQGTKLEIKR
B3: anti-CD200R antibody clone 21.3.1 (mIgG1k isotype) (antibody, V domains shown)
VH: QVQLQQPGSELVRPGASVKLSCKASGHTFTSYWMHWVKQRPGQGLEWIGNIYPGSGSINYDEKFKSKAKLTVDTSSRTAYMQLSSLTSEDSAVYYCLTMTGTSWGQGTLVTVSA
VL: DVQMIQSPSSLSASLGDIVTMTCQASQGTPINLHWFQQKPGKAPKLLISGASNLEDGVPSRFSGSRYGTAFTLTISSLEDEDMATYFCLQFTYIPWTFGGGTKLEIKR
notes: Murine hybridoma antibody, IgG1 kappa
B4: 2131_chimera (antibody, V domains shown)
VH: B3 VH
VL: DVQMIQSPSSLSASLGDIVTMTCQASQGTPINLHWFQQKPGKAPKLLISGASNLEDGVPSRFSGSRYGTAFTLTISSLEDEDMATYFCLQFTYIPWTFGGGTKLEIK

Columns and labels:
[1] = target: T1, human CD200RLa full length construct on HEK293T cells (human, UniProt Q6Q8B3 24-271); test: flow cytometry on transiently transfected HEK293T cells
T1 construct: whole, on cells; also called CD200R1L
T1 sequence (looked up): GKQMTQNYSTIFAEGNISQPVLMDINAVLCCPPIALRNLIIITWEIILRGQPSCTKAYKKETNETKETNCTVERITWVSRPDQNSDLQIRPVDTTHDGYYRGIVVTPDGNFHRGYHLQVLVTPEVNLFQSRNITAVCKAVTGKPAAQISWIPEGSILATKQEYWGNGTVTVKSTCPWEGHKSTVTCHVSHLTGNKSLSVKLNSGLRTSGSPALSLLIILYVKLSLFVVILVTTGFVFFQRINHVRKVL
Description: (§1) The binding of CD200R antibodies to human and cyno CD200R and CD200RLa constructs was assessed by flow cytometry of transiently transfected cells. CD200RLa has a charged transmembrane (TM) that is not expected to express well in the absence of appropriate binding partners. Therefore, in addition to the full length CD200RLa constructs, chimeric constructs were used consisting of the CD200RLa extracellular domain fused to mouse CD80 transmembrane and intracellular tail to enable cell surface expression.
(§2) HEK293T cells were plated out at 1 million cells per well in a 6 well plate the day before transfection. The following day cells were transfected with CD200R constructs using 2.5 μg plasmid DNA (a pcDNA3.4 vector containing the CD200R construct sequence) and 10 μl Lipofectamine 2000 (mixed in 200 μl Optimem for 5 minutes then added dropwise to cells). 48 hours after transfection, cells were collected by vigorous pipetting in cold PBS and 50,000 cells pelleted per well in 96 well U bottom plates.
(§3) Cells were then washed and stained for 30 minutes with a secondary staining mix containing a live/dead marker (Near IR LD, Biolegend cat #423106) and APC anti-hIgG (clone QA19A42, Biolegend cat #366906) or AF647 anti-mIgG1 (clone RMG1-1, cat #406618). As a control, cells were separately stained with the commercial anti-CD200R clone OX108 directly labelled with AF647 (Biolegend cat #329308). Finally, cells were washed and resuspended in FACS buffer for acquisition on a FACS Celesta flow cytometer.

[2] = target: T2, human CD200RLa extracellular domain fused to mouse CD80 transmembrane and intracellular tail, on HEK293T cells (human; mouse, UniProt Q6Q8B3 24-239; Q00609 247-306, limits assumed); test: as above
T2 construct: extracellular domain;domain: transmembrane and intracellular tail; also called human CD200RLa chimeric construct
T2 sequence (looked up): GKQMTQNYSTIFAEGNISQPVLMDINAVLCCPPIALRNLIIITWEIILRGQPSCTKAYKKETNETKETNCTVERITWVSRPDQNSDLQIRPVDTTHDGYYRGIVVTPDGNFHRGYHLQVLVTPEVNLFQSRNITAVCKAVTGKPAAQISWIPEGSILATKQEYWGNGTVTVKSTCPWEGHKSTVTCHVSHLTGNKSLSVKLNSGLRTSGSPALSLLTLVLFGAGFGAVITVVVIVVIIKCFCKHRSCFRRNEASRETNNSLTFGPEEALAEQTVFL
Description: as §1, §2, §3

[3] = target: T3, cyno CD200RLa full length construct on cells (cynomolgus, UniProt A0A2K5W6R0 30-275); test: as above
T3 construct: whole, on cells; also called cynomolgus CD200RLa expressed on cells
T3 sequence: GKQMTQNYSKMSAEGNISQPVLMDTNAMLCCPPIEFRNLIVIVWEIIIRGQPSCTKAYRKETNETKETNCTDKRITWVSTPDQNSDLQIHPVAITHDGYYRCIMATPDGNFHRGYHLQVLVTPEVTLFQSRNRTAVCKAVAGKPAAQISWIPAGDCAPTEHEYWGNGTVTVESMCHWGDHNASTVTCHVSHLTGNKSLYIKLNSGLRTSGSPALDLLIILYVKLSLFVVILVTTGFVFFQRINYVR
Description: as §1, §2, §3

[4] = target: T4, monomeric soluble human CD200R extracellular domain (human, UniProt Q8TD46 29-265); test: BLI (Octet), antibody on anti-human Fc probes, monomeric CD200R in solution, 25 C, 1:1 global fit
T4 construct: extracellular domain; also called hCD200R; monomeric CD200R protein
T4 sequence (looked up): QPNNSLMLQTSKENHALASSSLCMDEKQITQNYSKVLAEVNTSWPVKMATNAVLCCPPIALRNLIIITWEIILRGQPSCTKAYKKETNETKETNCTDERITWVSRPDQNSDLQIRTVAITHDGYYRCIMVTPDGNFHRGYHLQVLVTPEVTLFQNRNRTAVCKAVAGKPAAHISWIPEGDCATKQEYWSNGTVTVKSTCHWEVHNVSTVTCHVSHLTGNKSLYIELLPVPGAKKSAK
Description: Humanised variant antibodies combining the different heavy and light variable domains described in Example 6 were produced by transient transfection of HEK293 cells. All antibodies were expressed on a human IgGI isotype with a P238D Fc mutation. The unpurified supernatants were analysed by Protein A-HPLC to determine the antibody concentrations, as a measure of expression yield. […] Binding affinity of humanized variants to human CD200R was assessed by bio-layer interferometry on an Octet R4 instrument. Each antibody was captured directly onto anti-human Fc capture probes (Sartorius 18-5060) for 60 sec followed by baseline setting in assay buffer (DPBS, 0.01% Polysorbate-20). Association of monomeric CD200R protein to immobilised antibodies was measured in 4 different protein concentrations (300, 100, 30 and 10 nM in assay buffer) at 25° C., with an association time of 120s and dissociation of 120s in assay buffer only. A reference probe with no antibody immobilised was used for background subtraction. Kinetic rate constants and binding KDs were calculated using Octet Analysis Studio 12 software. Global curve fitting based on all 4 concentrations using a 1:1 model was performed, from which kon and koff were obtained to calculate KD using the relationship KD=koff/kon.

[5] = target: T5, extracellular domain of cyno CD200R (SinoBiological 11232-C08H, Met1-Leu267) (cynomolgus, UniProt G7NZT0 25-268); test: SPR (Biacore), antibody captured by anti-human Fc, CD200R extracellular domain injected, single cycle kinetics, 25 C
T5 construct: range 1-267; Bought protein
T5 sequence: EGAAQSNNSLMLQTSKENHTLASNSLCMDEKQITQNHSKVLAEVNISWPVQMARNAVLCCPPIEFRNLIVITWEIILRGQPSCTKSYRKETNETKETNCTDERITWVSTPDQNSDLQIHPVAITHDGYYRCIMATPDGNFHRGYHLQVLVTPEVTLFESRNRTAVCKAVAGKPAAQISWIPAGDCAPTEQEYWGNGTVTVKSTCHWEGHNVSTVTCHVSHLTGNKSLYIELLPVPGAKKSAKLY
Description: This example investigates in vitro CD200R binding of anti-CD200R antibodies by surface plasmon resonance. Surface plasmon resonance binding experiments with purified anti-CD200R antibody (expressed on a hIgG1 isotype with a P238D Fc mutation) were performed using the Biacore T200 and 8K+instruments. Anti-human Fc antibody (Life Technologies H10500) was amine-coupled to a C1 sensor chip using standard amine-coupling chemistry. Residual activated carboxyls were blocked with ethanolamine. Antibodies with a human Fc were then captured on these surfaces.
To assess the binding of hu2131_v20_D56S antibody and variants (antibody hu213l_Q1E and antibody hu2131_Q1E_M99G) to the extracellular domains of human CD200R (Met29-Leu243) and cyno CD200R (SinoBiological 11232-C08H, Metl-Leu267), 10-30 RUs of antibody were captured. CD200R proteins were diluted into running buffer (10 mM HEPES, 150 mM NaCl, 3 mM EDTA, 0.01% Polysorbate 20, pH 7.4 with 0.1 mg/mL BSA) (full-length antibody sequences are disclosed in Table 10). Five three-fold serial dilutions were performed for each CD200R, with highest concentration being 100 nM. Samples were injected using a single cycle kinetics scheme (Karlsson Anal Biochem et al 2006). Data were analyzed using Biacore Insight Evaluation Software and fit to a simple kinetic model, from which kon and koff were obtained to calculate KD using the relationship KD=koff/kon. Experiments were run at 25° C.

[6] = target: T3, cyno CD200RLa full length construct on …; test: flow cytometry
Description: as §1, §2
as §3, with “Finally, cells were washed and resuspended in FACS buffer for acquisition on a FACS Celesta flow cytometer.” left out

[7] = target: T4, monomeric soluble human CD200R …; test: SPR, captured antibody, soluble monomeric receptor injected, single cycle kinetics, 37 C
Description: (§4) The binding affinity and kinetics of the CD200R antibodies of the present disclosure to human or cynomolgus CD200R were determined by surface plasmon resonance (SPR) using the Biacore T200 (GE Healthcare). Mouse antibody capture kit (GE Healthcare) was used to coat a Series S CM5 Sensor Chip (GE Healthcare) with polyclonal anti-mouse IgG.
(§5) Anti-CD200R antibody was captured onto the biosensor surface and a negative control antibody (clone Mopc21; Biolegend) captured in the reference channel. Various concentrations of monomeric soluble human CD200R extracellular domain, soluble cynomolgus macaque CD200R1 extracellular domain or soluble cynomolgus macaque CD200RLa (a highly homologous activating receptor) were injected over the immobilized antibodies in the buffer 10 mM Hepes, 150 mM NaCl, 0.005% v/v Surfactant P20, pH 7.4 (HBS-P) at 37° C., in a single cycle kinetics analysis. Association and dissociation rates were fitted using BiaEvaluation Software (GE Healthcare) after reference and blank subtractions, and dissociation constants were calculated (Table 2).

[8] = target: T6, soluble cynomolgus macaque CD200R1 extracellular domain (cynomolgus macaque, UniProt G7NZT0 29-266); test: as above
T6 construct: extracellular domain; also called Cynomolgus CD200R
T6 sequence: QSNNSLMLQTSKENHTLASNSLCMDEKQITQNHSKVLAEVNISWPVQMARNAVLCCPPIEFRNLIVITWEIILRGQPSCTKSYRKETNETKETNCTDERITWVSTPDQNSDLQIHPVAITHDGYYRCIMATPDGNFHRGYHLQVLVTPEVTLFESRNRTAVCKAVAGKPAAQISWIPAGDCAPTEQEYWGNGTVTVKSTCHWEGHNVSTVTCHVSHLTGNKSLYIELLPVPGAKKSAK
Description: as §4, §5

Binder	binding result [1]	binding result [2]	binding result [3]	Kd [4]	Kd [5]	koff [5]	kon [5]	binding result [6]	Kd [7]	Kd [8]
B1	no binding (tested: 10 ug/ml)	no binding (tested: 10 ug/ml)	no binding (tested: 10 ug/ml)	0.00206 nM	0.041 nM	1.06e-05 s⁻¹	258000 M⁻¹ s⁻¹	–	–	–
B2	no binding (tested: 10 ug/ml)	no binding (tested: 10 ug/ml)	no binding (tested: 10 ug/ml)	–	0.0917 nM	2.23e-05 s⁻¹	244000 M⁻¹ s⁻¹	–	–	–
B3	no binding (tested: 10 ug/ml)	no binding (tested: 10 ug/ml)	–	–	–	–	–	no binding	0.3 nM	0.00825 nM
B4	no binding (tested: 10 ug/ml)	no binding (tested: 10 ug/ml)	no binding (tested: 10 ug/ml)	0.00304 nM	–	–	–	–	–	–
